Among the data in US20240287172A1, “PROTEIN BINDERS TO IRHOM2 EPITOPES” (SCIRHOM GMBH, priority 2019, published 2024) are loss of binding vs wild type values, retold here.

In one assay the target is T1, hiR2-FL-K536A-T7 (human) (UniProt Q6PJF5).
T1 sequence: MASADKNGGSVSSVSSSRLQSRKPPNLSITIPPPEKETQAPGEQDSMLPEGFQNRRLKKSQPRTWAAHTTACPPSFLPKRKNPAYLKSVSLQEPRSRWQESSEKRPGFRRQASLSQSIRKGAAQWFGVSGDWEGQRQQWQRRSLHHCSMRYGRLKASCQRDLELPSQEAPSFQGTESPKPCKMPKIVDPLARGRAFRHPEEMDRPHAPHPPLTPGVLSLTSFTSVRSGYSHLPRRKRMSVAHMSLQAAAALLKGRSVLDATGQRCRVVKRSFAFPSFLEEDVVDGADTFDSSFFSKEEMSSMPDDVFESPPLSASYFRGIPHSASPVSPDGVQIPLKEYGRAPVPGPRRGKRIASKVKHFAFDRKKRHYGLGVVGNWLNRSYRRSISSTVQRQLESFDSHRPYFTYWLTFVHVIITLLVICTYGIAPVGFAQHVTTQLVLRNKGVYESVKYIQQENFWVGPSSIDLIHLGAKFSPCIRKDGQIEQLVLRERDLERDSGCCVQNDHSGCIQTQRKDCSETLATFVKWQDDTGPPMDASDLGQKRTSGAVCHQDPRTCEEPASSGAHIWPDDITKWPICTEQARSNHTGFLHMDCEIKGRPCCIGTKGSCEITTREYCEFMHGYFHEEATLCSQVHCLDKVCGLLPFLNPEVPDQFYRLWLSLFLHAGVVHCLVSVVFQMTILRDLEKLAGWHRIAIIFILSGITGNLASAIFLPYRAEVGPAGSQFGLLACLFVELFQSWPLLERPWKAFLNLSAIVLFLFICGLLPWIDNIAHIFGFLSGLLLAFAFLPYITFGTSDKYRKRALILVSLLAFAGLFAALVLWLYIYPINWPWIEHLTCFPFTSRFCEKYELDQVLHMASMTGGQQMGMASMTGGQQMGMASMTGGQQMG
In words: FACS on MEF-DKO cells expressing the variant, 3 µg/ml antibody.

A further assay has as its target T2, hiR2-FL-H505R-T7 (human) (UniProt Q6PJF5).
T2 sequence: T1 sequence with H505R, A536K
In words: FACS, MEF-DKO cells, 3 µg/ml. In general terms: A flow cytometer gives signals particle by particle.

Numbering of substitutions follows the chain as printed.

B1: antibody 22 (antibody, V domains shown)
VH: QVTLKESGPGILQPSQTLSLTCSFSGFSLSTFGMGVGWIRQPSGKGLEWLAHIWWDDEKYYNSALKSRLTISKATSKNQVFLKIANVDTADTATYYCARISNYGSNYWYFNVWGTGTTVTVSS
VL: QVVLTQSPALMSASPGEKVTMTCSAGSSVSYMYWYQQKPGSSPRVLIYDTSNLASGVPARFTGSGSGTSYSLTISRMEAEDAATYYCQQWNSYPLTFGAGTKLELK
B1: in the assay with hiR2-FL-K536A-T7 (human), the loss of binding vs wild type is above 95%.

B2: antibody 44 (antibody, V domains shown)
VH: B1 VH with G44E, E58D, S63P, A74D, V80I, A85T, D91E, A98S, S101G, N111D
VL: B1 VL with V2I, L10V, S24T, G26S, S30Y, K38T, V45L, A59V, T62S, S92T
In turn, B2 returned a loss of binding vs wild type with hiR2-FL-K536A-T7 (human) above 95%.

B3: antibody 42 (antibody, V domains shown)
VH: B1 VH with F24L, M34R, S63P, A74D, K83R, S101Q, N111D
VL: LIVLTQSPAIMSASPGEKVTMTCGATSRISYMFWYQQKPGSSPRVLIYDTSNLASGVPVRFSGSGSGTSYSLTISRVEAEDVATYYCQQWNSYPLTFGAGTKLELK
With B3, in the assay with hiR2-FL-K536A-T7 (human), the loss of binding vs wild type is above 95%.

B4: antibody 48 (antibody, V domains shown)
VH: QVQLQQSGTELVRPGTSVKVSCKASGYAFTNYLIEWVKQRPGQGLEWIGVINPGSGFTKYNEKFKGKATLTADKSSSTVYMHLSSLTSEDSAVYFCARGLYRAMDYWGQGTSVTVSS
VL: DIQMTQSPASQSASLGESVTITCLASQTIATWLAWYQQKPGKSPQLLIYGATTLADGVPSRFSGGGSGTKFSFKISSLQAEDFVSYYCQQLYSTPYTFGGGTKLEIK
With B4, the loss of binding vs wild type with hiR2-FL-H505R-T7 (human) is above 60%.

B5: antibody 34 (antibody, V domains shown)
VH: QVTLKESGPGILQPSQTLSLTCSFSGFSLSTFSLGVGWIRQSSGKGLEWLAHIWWDDEKYYNPALKSRLTISKDTSKNQVFLKIANVDAADTATYYCARAYYSKSYYALDYWGQGTSVTVSS
VL: DIQMTQSPSSLSASLGERVSLTCRASQEISGYLSWLQQKPDGTIKRLIYAASTLDSGVPKRFSGSRSGSDYSLAISSLESEDFADYYCLQYANFPFTFGSGTKLEIK
In the case of B5, the loss of binding vs wild type with hiR2-FL-K536A-T7 (human) was above 95%.
